According to patent US20200262877A1, “ION CHANNEL-BINDING PEPTIDES AND METHODS OF USE THEREOF” (priority 2017, published 2020):

Tests used:
Kv1.2 = target: T1, Kv1.2 (Homo sapiens, UniProt P16389); experiment: cell-based; format: cell-based; conditions: 100% = no change, <100% = inhibition
T1 construct: host or cells: HEK293 or CHO
In short: (§1)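 Transfected HEK293 or CHO cells were exposed for at least 5 min to peptides at 200 nM and 20 μM final, tested in duplicate, in HEPES-buffered physiological saline. Activation was taken as peptide-plus-agonist current over control current ×100, and inhibition as 1 minus that ratio ×100. Each channel's control was its own reference compound.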

Kv1.3 = target: T2, Kv1.3 (Homo sapiens, UniProt P22001); experiment: cell-based; format: cell-based; conditions: 100% = no change, <100% = inhibition
T2 construct: host or cells: HEK293 or CHO
In short: as §1

Kv1.1 = target: T3, Kv1.1 (Homo sapiens, UniProt Q09470); experiment: cell-based; format: cell-based; conditions: 100% = no change, <100% = inhibition
T3 construct: host or cells: HEK293 or CHO
In short: as §1

NR2B = target: T4, NR2B (Homo sapiens, UniProt Q13224); experiment: Ion channel panel (IonWorks Barracuda): NR2B; format: cell-based; conditions: 100% = no change, <100% = inhibition
T4 construct: host or cells: HEK293 or CHO
In short: as §1

5HT3a = target: T5, 5HT3a (Homo sapiens, UniProt P46098); experiment: Ion channel panel (IonWorks Barracuda): 5HT3a; format: cell-based
T5 construct: host or cells: HEK293 or CHO
T5 sequence (P46098 whole entry, looked up): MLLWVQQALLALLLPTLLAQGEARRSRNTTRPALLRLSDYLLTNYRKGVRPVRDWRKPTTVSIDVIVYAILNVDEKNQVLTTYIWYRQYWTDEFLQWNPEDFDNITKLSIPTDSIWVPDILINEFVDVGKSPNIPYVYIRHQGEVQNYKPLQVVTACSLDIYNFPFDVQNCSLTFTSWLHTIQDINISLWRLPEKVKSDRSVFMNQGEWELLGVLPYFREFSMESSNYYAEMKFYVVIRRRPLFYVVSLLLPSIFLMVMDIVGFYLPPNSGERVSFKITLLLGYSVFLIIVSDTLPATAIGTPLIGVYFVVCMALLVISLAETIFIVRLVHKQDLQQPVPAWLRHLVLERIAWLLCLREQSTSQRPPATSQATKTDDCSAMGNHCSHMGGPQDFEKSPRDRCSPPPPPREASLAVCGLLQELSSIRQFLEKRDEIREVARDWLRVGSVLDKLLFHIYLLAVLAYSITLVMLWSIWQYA
In short: as §1

Nav1.7 = target: T6, Nav1.7 (Homo sapiens, UniProt Q15858); experiment: cell-based; format: cell-based; conditions: 100% = no change; for Activity of Nav1.7 with peptide, expressed as a percentage of the reference compound: peptide at 0.2 μM; for Activity of Nav1.7 with peptide (percentage of the reference compound): peptide at 20 μM
T6 construct: host or cells: HEK293 or CHO
T6 sequence (Q15858 whole entry): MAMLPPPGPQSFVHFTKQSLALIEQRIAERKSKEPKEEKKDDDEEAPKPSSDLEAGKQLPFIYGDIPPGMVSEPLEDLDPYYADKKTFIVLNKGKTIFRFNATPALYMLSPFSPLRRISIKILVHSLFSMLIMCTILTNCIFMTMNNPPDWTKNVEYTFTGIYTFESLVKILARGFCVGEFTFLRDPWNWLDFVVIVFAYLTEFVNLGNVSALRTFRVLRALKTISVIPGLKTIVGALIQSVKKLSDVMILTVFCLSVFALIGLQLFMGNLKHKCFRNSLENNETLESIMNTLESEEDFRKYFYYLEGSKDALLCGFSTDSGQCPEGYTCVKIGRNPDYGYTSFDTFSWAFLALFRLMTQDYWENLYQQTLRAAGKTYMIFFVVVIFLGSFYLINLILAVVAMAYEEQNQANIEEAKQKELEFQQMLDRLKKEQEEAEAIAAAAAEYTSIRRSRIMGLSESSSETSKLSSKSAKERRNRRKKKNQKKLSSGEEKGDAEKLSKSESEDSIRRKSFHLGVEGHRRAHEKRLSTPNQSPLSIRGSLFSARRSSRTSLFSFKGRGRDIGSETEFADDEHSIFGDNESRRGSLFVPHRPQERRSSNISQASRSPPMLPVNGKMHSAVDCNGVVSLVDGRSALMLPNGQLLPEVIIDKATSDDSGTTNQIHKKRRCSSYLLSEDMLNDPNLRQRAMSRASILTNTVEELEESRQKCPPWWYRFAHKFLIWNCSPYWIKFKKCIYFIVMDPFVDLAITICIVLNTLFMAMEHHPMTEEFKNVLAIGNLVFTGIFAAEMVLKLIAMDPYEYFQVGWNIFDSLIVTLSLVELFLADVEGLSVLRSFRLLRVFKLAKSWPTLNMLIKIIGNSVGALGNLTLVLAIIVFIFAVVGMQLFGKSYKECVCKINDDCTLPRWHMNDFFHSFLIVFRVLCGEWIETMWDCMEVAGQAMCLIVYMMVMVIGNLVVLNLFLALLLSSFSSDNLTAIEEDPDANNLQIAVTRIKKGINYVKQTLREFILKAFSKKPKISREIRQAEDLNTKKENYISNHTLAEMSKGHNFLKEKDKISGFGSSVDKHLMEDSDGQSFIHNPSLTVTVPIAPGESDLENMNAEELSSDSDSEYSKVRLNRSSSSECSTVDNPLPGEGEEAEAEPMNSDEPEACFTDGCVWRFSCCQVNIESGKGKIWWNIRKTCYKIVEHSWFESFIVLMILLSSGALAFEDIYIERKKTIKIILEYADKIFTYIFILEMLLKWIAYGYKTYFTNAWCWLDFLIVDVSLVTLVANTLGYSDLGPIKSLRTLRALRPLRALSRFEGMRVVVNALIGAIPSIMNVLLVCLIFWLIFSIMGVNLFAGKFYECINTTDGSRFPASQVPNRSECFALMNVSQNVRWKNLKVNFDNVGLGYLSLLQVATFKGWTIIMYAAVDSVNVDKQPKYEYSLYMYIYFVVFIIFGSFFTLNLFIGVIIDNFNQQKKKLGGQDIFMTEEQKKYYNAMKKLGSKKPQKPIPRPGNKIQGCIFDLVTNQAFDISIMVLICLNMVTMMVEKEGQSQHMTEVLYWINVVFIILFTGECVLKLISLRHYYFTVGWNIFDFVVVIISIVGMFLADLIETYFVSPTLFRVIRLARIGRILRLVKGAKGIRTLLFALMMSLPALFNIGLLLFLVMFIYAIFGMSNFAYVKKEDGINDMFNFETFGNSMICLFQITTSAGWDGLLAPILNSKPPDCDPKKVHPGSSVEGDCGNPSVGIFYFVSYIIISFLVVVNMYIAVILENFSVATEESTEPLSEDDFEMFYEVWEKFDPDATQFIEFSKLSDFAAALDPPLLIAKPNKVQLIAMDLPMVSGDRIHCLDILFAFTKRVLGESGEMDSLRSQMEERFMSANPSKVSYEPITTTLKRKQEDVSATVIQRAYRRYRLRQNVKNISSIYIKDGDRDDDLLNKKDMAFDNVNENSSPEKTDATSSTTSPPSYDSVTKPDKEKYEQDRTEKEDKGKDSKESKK

TRPV1 = target: T7, TRPV1 (Homo sapiens, UniProt Q8NER1); experiment: Ion channel panel (IonWorks Barracuda): TRPV1; format: cell-based; conditions: 100% = no change, <100% = inhibition
T7 construct: host or cells: HEK293 or CHO
In short: as §1

hERG = hERG (Homo sapiens, UniProt Q12809); experiment: in vitro; conditions: 100% = no change, <100% = inhibition
In short: as §1

Nav1.5 = Nav1.5 (Homo sapiens, UniProt Q14524); experiment: in vitro; conditions: 100% = no change; for Activity of Nav1.5 with peptide, expressed as a percentage of the reference compound: peptide at 0.2 μM; for Activity of Nav1.5 with peptide (percentage of the reference compound): peptide at 20 μM
Chain of Nav1.5 (Q14524 whole entry): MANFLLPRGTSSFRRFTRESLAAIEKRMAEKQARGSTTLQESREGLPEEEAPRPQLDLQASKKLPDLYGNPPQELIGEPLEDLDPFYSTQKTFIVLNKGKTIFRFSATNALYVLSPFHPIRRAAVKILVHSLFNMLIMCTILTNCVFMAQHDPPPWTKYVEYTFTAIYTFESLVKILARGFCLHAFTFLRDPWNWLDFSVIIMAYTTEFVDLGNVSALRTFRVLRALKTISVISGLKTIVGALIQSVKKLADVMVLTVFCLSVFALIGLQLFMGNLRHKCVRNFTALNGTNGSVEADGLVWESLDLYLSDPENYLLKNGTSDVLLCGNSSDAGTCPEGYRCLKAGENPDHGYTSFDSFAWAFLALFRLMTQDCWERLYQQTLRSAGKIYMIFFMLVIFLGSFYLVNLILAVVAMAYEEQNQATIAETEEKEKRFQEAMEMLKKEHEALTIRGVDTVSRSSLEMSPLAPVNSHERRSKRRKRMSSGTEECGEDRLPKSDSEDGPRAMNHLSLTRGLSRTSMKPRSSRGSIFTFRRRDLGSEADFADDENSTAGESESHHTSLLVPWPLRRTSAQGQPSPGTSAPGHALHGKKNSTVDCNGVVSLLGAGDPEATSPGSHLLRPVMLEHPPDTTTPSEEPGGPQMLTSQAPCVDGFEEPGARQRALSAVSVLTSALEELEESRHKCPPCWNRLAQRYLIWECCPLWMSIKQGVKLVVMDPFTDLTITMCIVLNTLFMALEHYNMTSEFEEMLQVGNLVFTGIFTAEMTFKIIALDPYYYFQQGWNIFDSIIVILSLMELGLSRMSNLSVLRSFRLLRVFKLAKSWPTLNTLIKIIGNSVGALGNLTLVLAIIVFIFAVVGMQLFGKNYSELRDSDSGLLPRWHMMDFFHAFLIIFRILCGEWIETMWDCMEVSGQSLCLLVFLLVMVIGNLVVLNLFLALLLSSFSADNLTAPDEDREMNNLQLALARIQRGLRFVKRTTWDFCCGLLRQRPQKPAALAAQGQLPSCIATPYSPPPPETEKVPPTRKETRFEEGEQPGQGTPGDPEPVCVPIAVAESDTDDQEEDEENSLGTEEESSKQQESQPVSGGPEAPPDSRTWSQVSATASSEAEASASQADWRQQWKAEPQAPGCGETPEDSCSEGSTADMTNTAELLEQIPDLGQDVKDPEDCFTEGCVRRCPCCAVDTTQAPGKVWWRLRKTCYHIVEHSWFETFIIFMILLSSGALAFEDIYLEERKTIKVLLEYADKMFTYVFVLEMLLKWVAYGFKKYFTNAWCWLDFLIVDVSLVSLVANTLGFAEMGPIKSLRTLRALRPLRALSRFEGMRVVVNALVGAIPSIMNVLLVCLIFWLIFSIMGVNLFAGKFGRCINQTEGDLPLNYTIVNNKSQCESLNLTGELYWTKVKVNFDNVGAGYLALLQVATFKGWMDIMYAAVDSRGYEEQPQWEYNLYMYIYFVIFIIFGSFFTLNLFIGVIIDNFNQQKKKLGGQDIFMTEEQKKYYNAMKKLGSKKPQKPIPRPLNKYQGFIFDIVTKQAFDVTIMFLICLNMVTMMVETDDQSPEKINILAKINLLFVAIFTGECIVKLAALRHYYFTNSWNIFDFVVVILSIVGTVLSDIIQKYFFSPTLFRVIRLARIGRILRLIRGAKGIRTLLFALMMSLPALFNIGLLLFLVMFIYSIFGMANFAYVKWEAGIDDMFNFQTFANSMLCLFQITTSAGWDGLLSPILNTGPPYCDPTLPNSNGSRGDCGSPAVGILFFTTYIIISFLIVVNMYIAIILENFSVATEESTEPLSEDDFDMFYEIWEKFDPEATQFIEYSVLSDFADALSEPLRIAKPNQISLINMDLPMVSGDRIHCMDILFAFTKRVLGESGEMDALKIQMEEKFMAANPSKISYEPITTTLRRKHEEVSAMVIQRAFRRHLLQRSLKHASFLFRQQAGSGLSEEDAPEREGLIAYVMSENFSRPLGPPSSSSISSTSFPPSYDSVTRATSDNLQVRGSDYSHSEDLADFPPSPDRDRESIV
In short: as §1

α3β4 = target: T8, α3β4 (Homo sapiens, UniProt P30926+P32297); experiment: Ion channel panel (IonWorks Barracuda): α3β4; format: cell-based; conditions: 100% = no change, <100% = inhibition
T8 construct: host or cells: HEK293 or CHO
In short: as §1

TRPA1 = target: T9, TRPA1 (Homo sapiens, UniProt O75762); experiment: Ion channel panel (IonWorks Barracuda): TRPA1; format: cell-based; conditions: 100% = no change, <100% = inhibition
T9 construct: host or cells: HEK293 or CHO
In short: as §1

GABA = experiment: Ion channel panel (IonWorks Barracuda): GABA; format: cell-based; conditions: 100% = no change, <100% = inhibition
In short: as §1

α4β2 = target: T10, α4β2 (Homo sapiens, UniProt P17787+P43681); experiment: Ion channel panel (IonWorks Barracuda): α4β2; format: cell-based; conditions: 100% = no change, <100% = inhibition
T10 construct: host or cells: HEK293 or CHO
In short: as §1

NR2A = target: T11, NR2A (Homo sapiens, UniProt Q12879); experiment: Ion channel panel (IonWorks Barracuda): NR2A; format: cell-based; conditions: 100% = no change, <100% = inhibition
T11 construct: host or cells: HEK293 or CHO
In short: as §1

Kir2.1 = target: T12, Kir2.1 (Homo sapiens, UniProt P63252); experiment: Ion channel panel (IonWorks Barracuda): Kir2.1; format: cell-based; conditions: 100% = no change, <100% = inhibition
T12 construct: host or cells: HEK293 or CHO
T12 sequence (P63252 whole entry): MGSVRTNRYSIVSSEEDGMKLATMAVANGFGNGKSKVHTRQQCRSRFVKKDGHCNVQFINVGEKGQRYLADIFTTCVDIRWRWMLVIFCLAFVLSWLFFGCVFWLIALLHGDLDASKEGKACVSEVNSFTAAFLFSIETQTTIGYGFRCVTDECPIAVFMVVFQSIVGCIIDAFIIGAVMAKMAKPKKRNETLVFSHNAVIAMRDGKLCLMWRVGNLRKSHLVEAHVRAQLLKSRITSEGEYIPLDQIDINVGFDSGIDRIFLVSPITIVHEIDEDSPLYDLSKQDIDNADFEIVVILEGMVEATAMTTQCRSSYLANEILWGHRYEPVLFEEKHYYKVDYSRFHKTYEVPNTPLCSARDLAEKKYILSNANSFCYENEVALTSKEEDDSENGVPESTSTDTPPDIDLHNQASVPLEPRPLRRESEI
In short: as §1

Cav2.1 = target: T13, Cav2.1 (Homo sapiens, UniProt O00555); experiment: cell-based; conditions: 100% = no change, <100% = inhibition
T13 construct: host or cells: HEK293 or CHO
In short: as §1

Kv2.1 = target: T14, Kv2.1 (Homo sapiens, UniProt Q14721); experiment: cell-based; conditions: 100% = no change, <100% = inhibition
T14 construct: host or cells: HEK293 or CHO
In short: as §1

Cav2.2 = target: T15, Cav2.2 (Homo sapiens, UniProt Q00975); experiment: cell-based; conditions: 100% = no change, <100% = inhibition
T15 construct: host or cells: HEK293 or CHO
In short: as §1

[1] = first of two Nav1.7 columns (probably TP1)
[2] = second of two Nav1.7 columns (probably TP2)
[3] = first of two Nav1.5 columns (probably TP1)
[4] = second of two Nav1.5 columns (probably TP2)

T1 sequence (P16389 whole entry): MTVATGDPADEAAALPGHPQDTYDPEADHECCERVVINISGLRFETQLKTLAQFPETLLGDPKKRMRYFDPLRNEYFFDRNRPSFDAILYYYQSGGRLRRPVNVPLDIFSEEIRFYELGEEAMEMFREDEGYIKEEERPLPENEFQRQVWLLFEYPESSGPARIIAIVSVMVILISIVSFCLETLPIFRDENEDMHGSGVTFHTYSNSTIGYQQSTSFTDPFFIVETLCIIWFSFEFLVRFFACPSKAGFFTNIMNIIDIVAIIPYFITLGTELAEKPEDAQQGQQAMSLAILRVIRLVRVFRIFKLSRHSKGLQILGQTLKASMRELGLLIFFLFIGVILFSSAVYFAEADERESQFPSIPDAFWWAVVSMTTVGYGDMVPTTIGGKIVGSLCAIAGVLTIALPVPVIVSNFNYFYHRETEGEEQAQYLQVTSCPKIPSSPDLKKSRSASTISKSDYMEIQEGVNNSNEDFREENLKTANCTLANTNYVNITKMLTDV

24 (GSSCAKPGEMCMRIKCCDGQCGCNRGTGRCFCK) [compound 24]
Activity of Kv1.2 with peptide, expressed as a percentage of the reference compound (Kv1.2; peptide at 0.2 μM): 74% | Activity of Kv1.2 with peptide (percentage of the reference compound) (Kv1.2; peptide at 20 μM): 83% | Activity of Kv1.3 with peptide, expressed as a percentage of the reference compound (Kv1.3; peptide at 0.2 μM): 94% | Activity of Kv1.3 with peptide (percentage of the reference compound) (Kv1.3; peptide at 20 μM): 73% | Activity of Kv1.1 with peptide, expressed as a percentage of the reference compound (Kv1.1; peptide at 0.2 μM): 65% | Activity of Kv1.1 with peptide (percentage of the reference compound) (Kv1.1; peptide at 20 μM): 69% | Activity of NR2B with peptide, expressed as a percentage of the reference compound (NR2B; peptide at 0.2 μM): 102% | Activity of NR2B with peptide (percentage of the reference compound) (NR2B; peptide at 20 μM): 92% | Activity of 5HT3a with peptide (percentage of the reference compound) (5HT3a): 84% | Activity of 5HT3a with peptide, expressed as a percentage of the reference compound (5HT3a): 85% | Activity of Nav1.7 with peptide, expressed as a percentage of the reference compound (Nav1.7; [1]): 84% | Activity of Nav1.7 with peptide, expressed as a percentage of the reference compound (Nav1.7; [2]): 97% | Activity of Nav1.7 with peptide (percentage of the reference compound) (Nav1.7; [1]): 80% | Activity of Nav1.7 with peptide (percentage of the reference compound) (Nav1.7; [2]): 83% | Activity of TRPV1 with peptide, expressed as a percentage of the reference compound (TRPV1; peptide at 0.2 μM): 131% | Activity of TRPV1 with peptide (percentage of the reference compound) (TRPV1; peptide at 20 μM): 102% | Activity of hERG with peptide, expressed as a percentage of the reference compound (hERG; peptide at 0.2 μM): 88% | Activity of hERG with peptide (percentage of the reference compound) (hERG; peptide at 20 μM): 78% | Activity of Nav1.5 with peptide, expressed as a percentage of the reference compound (Nav1.5; [3]): 94% | Activity of Nav1.5 with peptide, expressed as a percentage of the reference compound (Nav1.5; [4]): 95% | Activity of Nav1.5 with peptide (percentage of the reference compound) (Nav1.5; [3]): 99% | Activity of Nav1.5 with peptide (percentage of the reference compound) (Nav1.5; [4]): 104% | Activity of a3b4 with peptide, expressed as a percentage of the reference compound (α3β4; peptide at 0.2 μM): 101% | Activity of a3b4 with peptide (percentage of the reference compound) (α3β4; peptide at 20 μM): 87% | Activity of TRPA1 with peptide, expressed as a percentage of the reference compound (TRPA1; peptide at 0.2 μM): 132% | Activity of TRPA1 with peptide (percentage of the reference compound) (TRPA1; peptide at 20 μM): 107% | Activity of GABA with peptide, expressed as a percentage of the reference compound (GABA; peptide at 0.2 μM): 96% | Activity of GABA with peptide (percentage of the reference compound) (GABA; peptide at 20 μM): 114% | Activity of a4b2 with peptide, expressed as a percentage of the reference compound (α4β2; peptide at 0.2 μM): 97% | Activity of a4b2 with peptide (percentage of the reference compound) (α4β2; peptide at 20 μM): 88% | Activity of NR2A with peptide, expressed as a percentage of the reference compound (NR2A; peptide at 0.2 μM): 102% | Activity of NR2A with peptide (percentage of the reference compound) (NR2A; peptide at 20 μM): 100% | Activity of Kir2.1 with peptide, expressed as a percentage of the reference compound (Kir2.1; peptide at 0.2 μM): 104% | Activity of Kir2.1 with peptide (percentage of the reference compound) (Kir2.1; peptide at 20 μM): 90% | Activity of Cav2.1 with peptide, expressed as a percentage of the reference compound (Cav2.1; peptide at 0.2 μM): 92% | Activity of Cav2.1 with peptide (percentage of the reference compound) (Cav2.1; peptide at 20 μM): 121% | Activity of Kv2.1 with peptide, expressed as a percentage of the reference compound (Kv2.1; peptide at 0.2 μM): 91% | Activity of Kv2.1 with peptide (percentage of the reference compound) (Kv2.1; peptide at 20 μM): 81% | Activity of Cav2.2 with peptide, expressed as a percentage of the reference compound (Cav2.2; peptide at 0.2 μM): 120% | Activity of Cav2.2 with peptide (percentage of the reference compound) (Cav2.2; peptide at 20 μM): 102%
